Experimental data published in PMC4565748 (Molecular immunology, 2015).

How the values were obtained:
[1] = biological target: T1, complement C3b, site-specifically biotinylated (human, UniProt P01024 23-667; P01024 749-1663, biotin, site-specific (site not given)); test: SPR
[2] = biological target: T1, complement C3b, site-specifically …; test: SPR; remark: listed apart in the source
[3] = biological target: T1, complement C3b, site-specifically …; test: AlphaScreen or HTRF

Binder	Kd [1] [µM]	koff [1] [s⁻¹]	kon [1] [M⁻¹ s⁻¹]	Kd [2] [µM]	Kd [3] [µM]
staphylococcal complement inhibitor SCIN-A, full-length wild type (natural protein) STSLPTSNEYQNEKLANELKSLLDELNVNELATGSLNTYYKRTIKISGQKAMYALKSKDFKKMSEAKYQLQKIYNEIDEALKSKY	0.096 ± 0.016	0.051	550000	0.145 ± 0.056	–
SCIN-A.Q49A (natural protein) STSLPTSNEYQNEKLANELKSLLDELNVNELATGSLNTYYKRTIKISGAKAMYALKSKDFKKMSEAKYQLQKIYNEIDEALKSKY	0.069 ± 0.0083	0.051	760000	0.22 ± 0.098	0.12
SCIN-A.R42A.Q49A (natural protein) STSLPTSNEYQNEKLANELKSLLDELNVNELATGSLNTYYKATIKISGAKAMYALKSKDFKKMSEAKYQLQKIYNEIDEALKSKY	–	–	–	15	14
SCIN-A.R42A (natural protein) STSLPTSNEYQNEKLANELKSLLDELNVNELATGSLNTYYKATIKISGQKAMYALKSKDFKKMSEAKYQLQKIYNEIDEALKSKY	6.6 ± 0.62	0.58	89000	8.5 ± 0.12	14
